Results on two proteins are retold here after patent US20120058499.

Data set [1] has as its target NEDD8-amino-luciferin, Q15843.
For data set [2], the target named is T1, Z-Arg-Leu-Arg-Gly-Gly (SEQ ID NO: 1)-amino-luciferin.
T1 chain: RLRGG

Data set [3] has as its target ubiquitin-7-amino-4-methylcoumarin, P0CG47.
Data set [4] concerns the target ubiquitin-rhodamine110, P0CG47.

Sequence of NEDD8-amino-luciferin, Q15843 (Q15843 whole entry, looked up): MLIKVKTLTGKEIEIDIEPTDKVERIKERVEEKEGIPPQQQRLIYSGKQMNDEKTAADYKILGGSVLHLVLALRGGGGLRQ
Sequence of ubiquitin-rhodamine110, P0CG47 (P0CG47 whole entry, looked up): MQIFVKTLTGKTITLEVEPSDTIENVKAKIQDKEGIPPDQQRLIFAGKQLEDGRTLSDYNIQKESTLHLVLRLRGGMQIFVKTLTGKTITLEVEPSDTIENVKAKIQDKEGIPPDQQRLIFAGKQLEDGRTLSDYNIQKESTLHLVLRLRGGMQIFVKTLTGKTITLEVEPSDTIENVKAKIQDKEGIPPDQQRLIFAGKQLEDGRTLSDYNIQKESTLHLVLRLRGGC
Sequence of ubiquitin-7-amino-4-methylcoumarin, P0CG47 (P0CG47 whole entry, looked up): as above

B1: DEN1 (NEDD8-specific protease 1) (protein)
chain: MDPVVLSYMDSLLRQSDVSLLDPPSWLNDHIIGFAFEYFANSQFHDCSDHVSFISPEVTQFIKCTSNPAEIAMFLEPLDLPNKRVVFLAINDNSNQAAGGTHWSLLVYLQDKNSFFHYDSHSRSNSVHAKQVAEKLEAFLGRKGDKLAFVEEKAPAQQNSYDCGMYVICNTEALCQNFFRQQTESLLQLLTPAYITKKRGEWKDLITTLAKK
For B1, the “luminescence (RLUs), 250 nM substrate” value in data set [1] is on record as “A significant increase in signal was observed with the NEDD8-amino-luciferin substrate at a Den1 concentration at least 3-orders of magnitude lower than required for the Z-RLRGG (SEQ ID NO: 1)-amino-luciferin substrate”.

B2: Otubain2 (Otub2) (protein)
chain: MSETSFNLISEKCDILSILRDHPENRIYRRKIEELSKRFTAIRKTKGDGNCFYRALGYSYLESLLGKSREIFKFKERVLQTPNDLLAAGFEEHKFRNFFNAFYSVVELVEKDGSVSSLLKVFNDQSASDHIVQFLRLLTSAFIRNRADFFRHFIDEEMDIKDFCTHEVEPMATECDHIQITALSQALSIALQVEYVDEMDTALNHHVFPEAATPSVYLLYKTSHYNILYAADKH
For the protein B2, the Signal to Background, luminescence, DUB 10 nM is 980 S/B with Ub(1-76)-aminoluciferin and 1.3 S/B in data set [2]. For the same protein, the Signal to Background, fluorescence, DUB 10 nM came out at 1.2 S/B in data set [3] and 1.7 S/B in data set [4].
